# Source: PMC3115801 (The Journal of Cell Biology, 2011)
# T1: bacterially purified Epac1 (amino acids 149–882) (human, UniProt O95398-3 149-881)
# T1 sequence (looked up): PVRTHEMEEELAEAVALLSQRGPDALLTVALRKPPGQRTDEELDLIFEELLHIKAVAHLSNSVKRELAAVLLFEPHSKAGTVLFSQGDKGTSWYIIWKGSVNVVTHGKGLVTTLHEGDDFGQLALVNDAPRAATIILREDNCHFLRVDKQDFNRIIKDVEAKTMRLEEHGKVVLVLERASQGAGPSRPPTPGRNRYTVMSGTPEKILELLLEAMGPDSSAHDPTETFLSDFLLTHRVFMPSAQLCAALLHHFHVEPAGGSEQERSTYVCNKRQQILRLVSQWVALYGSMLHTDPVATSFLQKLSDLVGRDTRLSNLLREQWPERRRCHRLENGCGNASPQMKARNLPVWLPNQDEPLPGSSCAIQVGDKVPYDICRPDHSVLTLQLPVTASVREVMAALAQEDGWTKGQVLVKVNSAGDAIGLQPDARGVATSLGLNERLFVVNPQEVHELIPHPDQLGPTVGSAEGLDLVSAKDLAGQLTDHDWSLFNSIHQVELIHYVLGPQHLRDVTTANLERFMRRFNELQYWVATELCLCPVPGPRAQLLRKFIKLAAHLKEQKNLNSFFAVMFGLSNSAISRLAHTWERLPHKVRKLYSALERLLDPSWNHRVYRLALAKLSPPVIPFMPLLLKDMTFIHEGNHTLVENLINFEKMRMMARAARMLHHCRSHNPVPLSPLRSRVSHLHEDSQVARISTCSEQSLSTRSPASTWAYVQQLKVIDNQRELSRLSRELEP
# Target: T1, bacterially purified Epac1 (amino acids …)
# Test: pull-down
binder,measurement,value
"GST-tagged bacterially purified ZNF domain of RanBP2 (domain or fragment, UniProt P49792 1341-1819, looked up) NLNFEFQVAKKEGSWWHCNSCSLKNASTAKKCVSCQNLNPSNKELVGPPLAETVFTPKTSPENVQDRFALVTPKKEGHWDCSICLVRNEPTVSRCIACQNTKSANKSGSSFVHQASFKFGQGDLPKPINSDFRSVFSTKEGQWDCSACLVQNEGSSTKCAACQNPRKQSLPATSIPTPASFKFGTSETSKTLKSGFEDMFAKKEGQWDCSSCLVRNEANATRCVACQNPDKPSPSTSVPAPASFKFGTSETSKAPKSGFEGMFTKKEGQWDCSVCLVRNEASATKCIACQNPGKQNQTTSAVSTPASSETSKAPKSGFEGMFTKKEGQWDCSVCLVRNEASATKCIACQNPGKQNQTTSAVSTPASSETSKAPKSGFEGMFTKKEGQWDCSVCLVRNEASATKCIACQCPSKQNQTTAISTPASSEISKAPKSGFEGMFIRKGQWDCSVCCVQNESSSLKCVACDASKPTHKPIAEAPS",binding result,binds
